Assay results reported in patent US20230257454A1 (STAIDSON BEIJING BIOPHARMACEUTICALS, published 2023).
Like-named read-outs stand apart in the source and are kept apart here.

T1: human C5a (source not stated) (human, UniProt P01031 678-751)
T1 sequence: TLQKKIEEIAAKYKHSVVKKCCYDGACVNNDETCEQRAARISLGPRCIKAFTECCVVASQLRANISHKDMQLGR


Legend:
[1] = target: T2, native full-length human complement component C5 (human, UniProt P01031 19-673; P01031 678-1676); assay: SPR (Biacore T200), antibody on CM5 chip, antigen 0-10 nM
T2 construct: mature; The native protein has two disulfide-linked chains (alpha and beta) made from one precursor; also called human native C5
Experimental: The affinities for eC5a and c5 at various concentrations were measured. […] The concentrations of 0.625 and 0 nM were repeated once. Using the SPR technology, the association and dissociation rates were measured, and binding affinity was determined.

[2] = target: T1, human C5a (source not stated); assay: cell-based or functional assay
[3] = target: T1, human C5a (source not stated); assay: cell-based or functional assay; remark: listed apart in the source
[4] = target: T1, human C5a (source not stated); assay: cell-based or functional assay; remark: listed apart in the source

T2 sequence (P01031 19-673 limits assumed, one chain of several): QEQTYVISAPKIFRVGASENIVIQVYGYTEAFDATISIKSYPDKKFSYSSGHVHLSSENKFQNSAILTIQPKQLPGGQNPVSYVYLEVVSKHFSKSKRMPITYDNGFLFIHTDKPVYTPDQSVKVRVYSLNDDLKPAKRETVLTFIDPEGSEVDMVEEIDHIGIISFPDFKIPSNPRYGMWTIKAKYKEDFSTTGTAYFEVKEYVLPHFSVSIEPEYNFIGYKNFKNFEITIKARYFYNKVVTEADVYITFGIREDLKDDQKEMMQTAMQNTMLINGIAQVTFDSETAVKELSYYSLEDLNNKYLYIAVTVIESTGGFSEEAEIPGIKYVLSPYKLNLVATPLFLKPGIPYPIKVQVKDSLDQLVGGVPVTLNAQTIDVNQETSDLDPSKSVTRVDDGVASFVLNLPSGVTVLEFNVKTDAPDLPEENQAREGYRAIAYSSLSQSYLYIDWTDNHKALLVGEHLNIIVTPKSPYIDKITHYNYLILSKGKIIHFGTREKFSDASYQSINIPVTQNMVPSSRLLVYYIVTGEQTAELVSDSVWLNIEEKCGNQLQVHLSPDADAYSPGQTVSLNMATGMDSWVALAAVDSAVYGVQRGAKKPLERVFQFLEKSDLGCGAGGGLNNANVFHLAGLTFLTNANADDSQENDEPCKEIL

Row | Binder | ROS IC50 [2] | ROS IC50 [3] | further results
1 | INab308 (antibody, V domains shown) VH: QVQLQQSGPQLVRPGTSVKISCKASGYSFTTFWMDWVKQRPGQGLEWIGRIDPSDSESRLDQRFKDRATLTVDKSSSTVYMQLSSPTSEDSAVYYCARGNDGYYGFAYWGQGTLVTVSS VL: DIVLTQSPASLAVSLGQRATISCKASQSVDYDGDSYMKWYQQKPGQPPKLLIYAASNLQSGIPARFSGSGSGTDFTLNIHPVEEEDAATYYCQQSNEDPYTFGGGTKLEIK | – | – | Kd [1]: 0.743 nM; koff [1]: 0.000218 s⁻¹; kon [1]: 293000 M⁻¹ s⁻¹
2 | Cab15 scFv (scFv, V domains shown) VH: VVQLVESGGGLVQPGGSLKVSCAASGFTFSDYYMQWVRQAPGKGPEWVGLIRNKAIGETTEYAASVKGRFTISRDDSKSIVYLQMSSLKPEDTAVYYCAGRLGPPGLSWGQGVLVTVSS VL: DIVMTQNPLSLPVTPGEPASISCRSSQSLLATDGYTYLDWYLQKPGQSPQVLIYGGSKRASGVPDRFSGSGSGTDFTLKITKVEAEDVGIYYCMQHKALPPTFGQGTKLEIK | 0.64 nM | – | –
3 | Cab36 (reformatted as human IgG1) (antibody, V domains shown) VH: EMQLVESGGGLVQPGGSLRLSCAASGFTFSDYYMQWVRQAPGKGPEWVGLIRNKAVGETTEYAASVKGRFTISRDDSKNSVYLQMNSLKTEDTAVYYCVSRAGPPGLSWGQGVLVTVSS VL: DIVMTQSPLSLPVTPGEPASISCRSSQSLLASDGYNYIDWYLQKPGQSPQLLIYGGSNRASGVPDRFSGSGSGTDFTLKISRVEAEDVGVYFCLQHRALPPTFGQGTKLEIK | – | 1.41 nM | –
4 | Cab21 scFv (scFv, V domains shown) VH: EVQLVQSGGGLVQPGGSLKVSCAASGFIFSNYYIQWVRQAPGKGPEWVGLIRNKAIGETTEFAASVKGRFTISRDDSKSIVYLQMTRLKTEDTAVYYCAGRLGPPGLTWGQGVLVTISS VL: DAVMTQTPLSLPVTPGEPASISCRSSQSLLASDGYNYIDWYLQRPGQSPKVLIYGGSNRASGVPDRFSGSGSGTYFTLKISKVEAEDVGFYFCLQHRALPPTFGQGTKLEIK | 0.84 nM | – | –
5 | Cab43 (reformatted as human IgG1) (antibody, V domains shown) VH: EVQLVESGGGLVQPGGSLRLSCAASGFTFSNYYIQWVRQAPGKGPEWVGLIRNKAIGETTEFAASVKGRFTISRDDSKNSVYLQMNSLKTEDTAVYYCAGRLGPPGLTWGQGVLVTVSS VL: DIVMTQSPLSLPVTPGEPASISCRSSQNLLATDGYTYLDWYLQKPGQSPQLLIYGGSKRASGVPDRFSGSGSGTDFTLKISRVEAEDVGVYYCLQHRALPPTFGQGTKLEIK | – | – | ROS IC50 [4]: 0.62 nM
6 | Cab46 (reformatted as human IgG1) (antibody, V domains shown) VH: EVQLVESGGGLVQPGGSLRLSCAASGFTFSDYYIQWVRQAPGKGPEWVGLIRNKAVGGTTTYAASVKGRFTISRDDSKNSAYLQMNSLKTEDTAVYFCVSRAGPPGLSWGQGVLVTVSS VL: DIVMTQSPLSLPVTPGEPASISCRSSQSLLATDGYEYLDWYLQKPGQSPQLLIYGASNRASGVPDRFSGSGSGTDFTLKISRVEAEDVGVYYCLQHKALPPTFGQGTKLEIK | – | 0.66 nM | –
7 | Cab18 scFv (scFv, V domains shown) VH: VVQLVESGGGLVQPGGSLKVSCAASGFTFSDYYMQWVRQAPGKGPEWVGLIRNKAIGETTQYAASVKGRFTISRDDSKSIVYLQMSSLKTEDTAVYYCVSRAGPPGLSWGQGVLVTVSS VL: DIVMTQNPLSLPVTPGEPASISCRSSQSLLDSNRYAYVDWYLQKPGQSPQILVYGGSNRASGVPDRFSGSGSGTDFTLKISKVEAEDVGIYYCMQHKVLPPTFGQGTKLEIK | – | 1.36 nM | –
8 | Cab37 (reformatted as human IgG1) (antibody, V domains shown) VH: EMQLVESGGGLVQPGGSLRLSCAASGFTFSDYYMQWVRQAPGKGPEWVGLIRNKAVGFTTQYAASVKGRFTISRDDSKNSVYLQMNSLKTEDTAVYYCVSRAGPPGLSWGQGVLVTVSS VL: DIVMTQSPLSLPVTPGEPASISCRSSQSLLASDGYNYIDWYLQKPGQSPQLLIYGGSNRASGVPDRFSGSGSGTDFTLKISRVEAEDVGVYFCLQHRALPPTFGQGTKLEIK | – | 0.92 nM | –
9 | Cab38 (reformatted as human IgG1) (antibody, V domains shown) VH: EMQLVESGGGLVQPGGSLRLSCAASGFTFSDYYMQWVRQAPGKGPEWVGLIRNKAVGHTTQYAASVKGRFTISRDDSKNSVYLQMNSLKTEDTAVYYCVSRAGPPGLSWGQGVLVTVSS VL: DIVMTQSPLSLPVTPGEPASISCRSSQSLLASDGYNYIDWYLQKPGQSPQLLIYGGSNRASGVPDRFSGSGSGTDFTLKISRVEAEDVGVYFCLQHRALPPTFGQGTKLEIK | – | – | ROS IC50 [4]: 0.53 nM
10 | Cab35-IgG1 (antibody, V domains shown) VH: EMQLVESGGGLVQPGGSLRLSCAASGFTFSDYYMQWVRQAPGKGPEWVGLIRNKAVGETTQYAASVKGRFTISRDDSKNSVYLQMNSLKTEDTAVYYCVSRAGPPGLSWGQGVLVTVSS VL: DIVMTQSPLSLPVTPGEPASISCRSSQSLLASDGYNYIDWYLQKPGQSPQLLIYGGSNRASGVPDRFSGSGSGTDFTLKISRVEAEDVGVYFCLQHRALPPTFGQGTKLEIK | – | – | ROS IC50 [4]: 1.28 nM
11 | Cab03 scFv (scFv, V domains shown) VH: EVQLVESGGGLVQPGGSLKVSCAASGFIFSDYYMQWVRQAPGKGPEWVGLIRKKVNGGTTEYAASVKGRFTISRDDSKSIVYLQMSSLKIEDTAVYYCVSRAGPPGLTWGQGVLVTVSS VL: DIVLTQTPLSLAVSPGEPASISCRSSQSLLASDGYTYLDWYLQKPGQSPQILIYGGSNRASGVPDRFSGRGSGTDFTLKITKVEAEDVGVYYCLQHRALPPTFGQGTKLEIK | 1.41 nM | – | –
12 | Cab19 scFv (scFv, V domains shown) VH: EVQLVESGGGLVQPGGSLKVSCVASGFTFSDYYIQWVRQAPGKGPEWVGLIRNKAVGGTTSYAASVKGRFTISRDDSKSVAYLQMTSLKTEDTAVYFCVSRAGPPGLSWGQGVLVTVSS VL: DIVMIQNPLSLPVTPGEPASISCRSSQSLLHSDGYTYLDWYQQKPGQAPQLLIYGGSNRASGVPDRFSGSGSATDFTLKISKMEAEDVGVYYCMQHKALPPTFGGGTKVEIK | – | 1.32 nM | –
13 | Cab04 scFv (scFv, V domains shown) VH: EVQLVQSGGGLVQPGGSLKVSCAASGFTFSDYYMQWVRQAPGKGPEWVGLIRNKAIGGTTQYAASVKGRFTISRDDSKSIVYLQMSSLKTEDTAVYYCVSRAGPPGLSWGQGVVVTVSS VL: DIVMIQTPLSLPVTPGEPASISCRSSQRLLHTDGYTYLDWYLQKPGQSPQLLIYGGSNRASGVPDRFSGSGSGSDFTLKISKVEAEDVGVYYCLQHKALPLTFGGGTKLEIK | 1.87 nM | – | –
14 | Cab13 scFv (scFv, V domains shown) VH: VVQLVESGGGLVQPGGSLKVSCAASGFTFSDYYMQWVRQAPGKGPEWVGLIRNKAIGGTTQYAASVKGRFTISRDDSKSIVYLQMSSLKTEDTAVYYCVSRAGPPGLSWGQGVLVTISS VL: DIVMIQNPLSLPVTPGEPASISCRSSQSLLASDGYNYMDWYLQKPGQSPKVLIYGGSNRASGVPDRFSGSGSGTDFTLKITKVEAEDVGIYYCMQHKVLPPTFGQGTKLEIK | 1.08 nM | – | –
15 | Cab01 scFv (scFv, V domains shown) VH: EVQLVESGGGMVQPGGSLRVSCAASGFTFTKYYMQWVRQAPGKGPEWVGLIRNKANGGTAEYVASVKDRFTISRDDSKSIAYLQMSSLKTEDTAVYYCVMRDNGYHWGQGVLVTVSS VL: DIVLTQTPLSLPVTPGEPASISCRSSQRLLHSDGYTYLDWYLQKPGQSPQLLIYGGSNRASGVPDRFSGSGSGTDFTLKISKVEAEDVGVYYCMQHKALPLTFGGGTKVEIK | 1.51 nM | – | –
